B1: Ribonuclease, P00648 (parent)
chain: MMKMEGIALKKRLSWISVCLLVLVSAAGMLFSTAAKTETSSHKAHTEAQVINTFDGVADYLQTYHKLPDNYITKSEAQALGWVASKGNLADVAPGKSIGGDIFSNREGKLPGKSGRTWREADINYTSGFRNSDRILYSSDWLIYKTTDHYQTFTKIR

Variants of: B1
Settings: Bacillus amyloliquefaciens, pH 6.3, Thermal, CD, Mes 50 mM, structure 1BNI, whole UniProt chain shown; for ddG of mutation (higher = less stable) / unfolding free energy: 25 °C

Variant | ddG of mutation (higher = less stable) [kcal/mol] | unfolding free energy [kcal/mol] | Tm [°C] | change of melting temperature, mutant - wild type (higher = more stable) [°C] | unfolding enthalpy (van 't Hoff) [kcal/mol]
MMKMEGIALKKRLSWISVCLLVLVSAAGMLFSTAAKTETSSHKAHTEAQVINTFDGVADYLQTYHKLPDNYITKSEAQALGWVASKGNLADVAPGKSIGGDIFSNREGKLPGKSGRTWREADINYTSGFRNSDRILYSSDWGIYKTTDHYQTFTKIR [L142G] | 4.7 | 4.8 | 43.1 | -9.1 | 98.5
MMKMEGIALKKRLSWISVCLLVLVSAAGMLFSTAAKTETSSHKAHTEAQVINTFDGVADYLQTYHKLPDNYITKSEAQALGWVASKGNLADVAPGKSIGGDIFSNREGKLPGKSGRTWREADINYTSGFRNSDRILYSSDWLIYKTGDHYQTFTKIR [T147G] | 2.8 | 6.7 | – | – | –
MMKMEGIALKKRLSWISVCLLVLVSAAGMLFSTAAKTETSSHKAHTEAQVINTFDGVADYLQTYHKLPDNYITKSEAQALGWVASKGNLADVAPGKSIGGDIFSNREGKLPGKSGRTWREADINYTSGFRNSDRILYSSDWLIGKTTDHYQTFTKIR [Y144G] | 6.6 | 2.9 | 34.4 | -17.9 | 103
MMKMEGIALKKRLSWISVCLLVLVSAAGMLFSTAAKTETSSHKAHTEAQVINTFDGVADYLQTGHKLPDNYITKSEAQALGWVASKGNLADVAPGKSIGGDIFSNREGKLPGKSGRTWREADINYTSGFRNSDRILYSSDWLIYKTTDHYQTFTKIR [Y64G] | – | – | 42 | -10.3 | 117
MMKMEGIALKKRLSWISVCLLVLVSAAGMLFSTAAKTETSSHKAHTEAQVINTFDGVADYLQTYHKLPDNYITKSEAQALGWVASKGNLADVAPGKSIGGDIFSNREGKLPGKSGRTWRGADINYTSGFRNSDRILYSSDWLIYKTTDHYQTFTKIR [E120G] | – | – | 39.5 | -12.7 | 101
MMKMEGIALKKRLSWISVCLLVLVSAAGMLFSTAAKTETSSHKAHTEAQVINTFDGVADYLQTYHKLPDNYITKSEAQALGWVASKGNLADVAPGKSIGGDIFSNREGKLPGKSGRTWREADINYTSGFRNSDRILYSSDWLGYKTTDHYQTFTKIR [I143G] | – | – | 36.5 | -15.7 | 110

From FireProtDB (doi:10.1021/bi0362267)
